Values of other authors in patent US12485093B2, “Composition for use as an antiviral in the form of nasal drops and in nebulisers” (DERMOPARTNERS, S.L., priority 2021, dated 2025).
Read-outs that look alike come from different tables or passages of the source.

How the values were obtained:
SARS-CoV-2 [1] = settings: adenocarcinoma human alveolar basal epithelial cells (A549), 1 mg/ml
[2] = test system: viral entry into host cells; settings: by interacting with viral and/or cell surface receptors
SARS-CoV-2 [3] = settings: African green monkey kidney epithelial cells, 1 mg/ml

B1: lactoferrin (protein, UniProt P02788 20-710, looked up)
Lactotransferrin: GRRRSVQWCAVSQPEATKCFQWQRNMRKVRGPPVSCIKRDSPIQCIQAIAENRADAVTLDGGFIYEAGLAPYKLRPVAAEVYGTERQPRTHYYAVAVVKKGGSFQLNELQGLKSCHTGLRRTAGWNVPIGTLRPFLNWTGPPEPIEAAVARFFSASCVPGADKGQFPNLCRLCAGTGENKCAFSSQEPYFSYSGAFKCLRDGAGDVAFIRESTVFEDLSDEAERDEYELLCPDNTRKPVDKFKDCHLARVPSHAVVARSVNGKEDAIWNLLRQAQEKFGKDKSPKFQLFGSPSGQKDLLFKDSAIGFSRVPPRIDSGLYLGSGYFTAIQNLRKSEEEVAARRARVVWCAVGEQELRKCNQWSGLSEGSVTCSSASTTEDCIALVLKGEADAMSLDGGYVYTAGKCGLVPVLAENYKSQQSSDPDPNCVDRPVEGYLAVAVVRRSDTSLTWNSVKGKKSCHTAVDRTAGWNIPMGLLFNQTGSCKFDEYFSQSCAPGSDPRSNLCALCIGDEQGENKCVPNSNERYYGYTGAFRCLAENAGDVAFVKDVTVLQNTDGNNNEAWAKDLKLADFALLCLDGKRKPVTEARSCHLAMAPNHAVVSRMDKVERLKQVLLHQQAKFGRNGSDCPDKFCLFQSETKNLLFNDNTECLARLHGKTTYEKYLGPQYVAGITNLKKCSTSPLLEACEFLRK
notes: naturally occurring, non-toxic glycoprotein, multifunctional protein of the immune system
- inhibition of SARS-CoV-2 (SARS-CoV-2 [1]): capable of inhibiting SARS-CoV-2
- block of viral entry into host cells [2]: managed to block viral entry into host cells
- inhibition of SARS-CoV-2 (SARS-CoV-2 [3]): capable of inhibiting SARS-CoV-2
- effect on efficacy of remdesivir and hydroxychloroquine (SARS-CoV-2 infection): potentiated the efficacy of both remdesivir and hydroxychloroquine
- IC50 (SARS-CoV-2 infection; read-out: IC50 of inhibition of SARS-CoV-2 infection): 308 nM
